Values joined by “and” are separate entries in the source; they are usually repeats but may differ in a detail not shown here. Equal entries are not always repeated.
How the values were obtained:
[1] = biological target: cytochrome c; test: cell-based or functional assay
[2] = biological target: CYP52A5A, omega-hydroxylating cytochrome P450 of Candida tropicalis (Candida tropicalis); test: cell-based or functional assay
[3] = biological target: cytochrome c
[4] = biological target: CYP52A5A, omega-hydroxylating cytochrome P450 of Candida tropicalis

## truncated (soluble) CPRA from Candida tropicalis, produced in Sf9 insect cells (from UniProt P37201 33-680) (enzyme)
[1]
  Sp. Act. (reduction of cytochrome c), soluble fraction of Sf9 cells expressing truncated (soluble) CPRA: 8.42 µmol/min/mg and 4.4 µmol/min/mg
  specific activity (reduction of cytochrome c) relative to microsomes of cells expressing the unmodified CPR: 20 fold
[2]
  Enhancement (%) of hydroxylation of C14 myristic acid, 4 µl sCPR added: 2.4%
  Enhancement (%) of hydroxylation of C14 myristic acid, 8 µl sCPR added: 3.4%
  Enhancement (%) of hydroxylation of C14 myristic acid, 16 µl sCPR added: 3.4%
  Enhancement (%) of hydroxylation of C14 myristic acid, 32 µl sCPR added: 8.1%
  Enhancement (%) of hydroxylation of C14 myristic acid, 64 µl sCPR added: 6.9%
  enhancement of formation of omega-hydroxylauric acid by CYP52A5A on addition of soluble CPR (TLC autoradiogram): 4.4 fold
  increase of omega-hydroxylauric acid formation on addition of soluble CPR in the presence of membrane associated CPR: 6%
  omega-hydroxylauric acid (nmol), CYP52A5A microsomes with soluble CPR added: 0.07 nmol
  omega-hydroxylauric acid (nmol), CYP52A5A/CPRA microsomes with soluble CPR added: 0.115 nmol

B1: polyhistidine tagged soluble CPRA from Candida tropicalis, produced in E. coli (pET15b) (protein)
chain: MHHHHHHSSGLVPRGSHMDTGFLNTDSGSNSRDVLLTLKKNNKNTLLLFGSQTGTAEDYANKLSRELHSRFGLKTMVADFADYDWDNFGDITEDILVFFIVATYGEGEPTDNADEFHTWLTEEADTLSTLKYTVFGLGNSTYEFFNAIGRKFDRLLSEKGGDRFAEYAEGDDGTGTLDEDFMAWKDNVFDALKNDLNFEEKELKYEPNVKLTERDDLSAADSQVSLGEPNKKYINSEGIDLTKGPFDHTHPYLARITETRELFSSKDRHCIHVEFDISESNLKYTTGDHLAIWPSNSDENIKQFAKCFGLEDKLDTVIELKALDSTYTIPFPTPITYGAVIRHHLEISGPVSRQFFLSIAGFAPDEETKKAFTRLGGDKQEFAAKVTRRKFNIADALLYSSNNAPWSDVPFEFLIENVPHLTPRYYSISSSSLSEKQLINVTAVVEAEEEADGRPVTGVVTNLLKNVEIVQNKTGEKPLVHYDLSGPRGKFNKFKLPVHVRRSNFKLPKNSTTPVILIGPGTGVAPLRGFVRERVQQVKNGVNVGKTLLFYGCRNSNEDFLYKQEWAEYASVLGENFEMFNAFSRQDPSKKVYVQDKILENSQLVHELLTEGAIIYVCGDASRMARDVQTTISKIVAKSREISEDKAAELVKSWKVQNRYQEDVW
[3]
  Sp. Act. (reduction of cytochrome c), E. coli extract: 5.3 µmol/min/mg
  Sp. Act. (reduction of cytochrome c), concentrated & dialyzed purified protein: 420 µmol/min/mg

B2: truncated (soluble) CPRA from Candida tropicalis, produced in Sf9 insect cells (protein)
chain: MDTGFLNTDSGSNSRDVLLTLKKNNKNTLLLFGSQTGTAEDYANKLSRELHSRFGLKTMVADFADYDWDNFGDITEDILVFFIVATYGEGEPTDNADEFHTWLTEEADTLSTLKYTVFGLGNSTYEFFNAIGRKFDRLLSEKGGDRFAEYAEGDDGTGTLDEDFMAWKDNVFDALKNDLNFEEKELKYEPNVKLTERDDLSAADSQVSLGEPNKKYINSEGIDLTKGPFDHTHPYLARITETRELFSSKDRHCIHVEFDISESNLKYTTGDHLAIWPSNSDENIKQFAKCFGLEDKLDTVIELKALDSTYTIPFPTPITYGAVIRHHLEISGPVSRQFFLSIAGFAPDEETKKAFTRLGGDKQEFAAKVTRRKFNIADALLYSSNNAPWSDVPFEFLIENVPHLTPRYYSISSSSLSEKQLINVTAVVEAEEEADGRPVTGVVTNLLKNVEIVQNKTGEKPLVHYDLSGPRGKFNKFKLPVHVRRSNFKLPKNSTTPVILIGPGTGVAPLRGFVRERVQQVKNGVNVGKTLLFYGCRNSNEDFLYKQEWAEYASVLGENFEMFNAFSRQDPSKKVYVQDKILENSQLVHELLTEGAIIYVCGDASRMARDVQTTISKIVAKSREISEDKAAELVKSWKVQNRYQEDVW
[4]
  Conversion (%) of C14 myristic acid, 4 µl sCPR added to CYP52A5A microsomes: 12.4%
  Conversion (%) of C14 myristic acid, 8 µl sCPR added to CYP52A5A microsomes: 13.4%
  Conversion (%) of C14 myristic acid, 16 µl sCPR added to CYP52A5A microsomes: 13.4%
  Conversion (%) of C14 myristic acid, 32 µl sCPR added to CYP52A5A microsomes: 18.1%
  Conversion (%) of C14 myristic acid, 64 µl sCPR added to CYP52A5A microsomes: 16.9%
  hydroxylation activity on addition of soluble CPR: increased the hydroxylation activity approximately 5-fold
  net counts in product (omega-hydroxylation of [14C]-lauric acid), CYP52A5A microsomes with soluble CPR added: 7930 net counts
  net counts in product (omega-hydroxylation of [14C]-lauric acid), CYP52A5A/CPRA microsomes with soluble CPR added: 13200 net counts

B3: soluble CPRA from Candida tropicalis produced in E. coli (pProEX-1), his-tag removed with TEV protease (protein)
chain: DTGFLNTDSGSNSRDVLLTLKKNNKNTLLLFGSQTGTAEDYANKLSRELHSRFGLKTMVADFADYDWDNFGDITEDILVFFIVATYGEGEPTDNADEFHTWLTEEADTLSTLKYTVFGLGNSTYEFFNAIGRKFDRLLSEKGGDRFAEYAEGDDGTGTLDEDFMAWKDNVFDALKNDLNFEEKELKYEPNVKLTERDDLSAADSQVSLGEPNKKYINSEGIDLTKGPFDHTHPYLARITETRELFSSKDRHCIHVEFDISESNLKYTTGDHLAIWPSNSDENIKQFAKCFGLEDKLDTVIELKALDSTYTIPFPTPITYGAVIRHHLEISGPVSRQFFLSIAGFAPDEETKKAFTRLGGDKQEFAAKVTRRKFNIADALLYSSNNAPWSDVPFEFLIENVPHLTPRYYSISSSSLSEKQLINVTAVVEAEEEADGRPVTGVVTNLLKNVEIVQNKTGEKPLVHYDLSGPRGKFNKFKLPVHVRRSNFKLPKNSTTPVILIGPGTGVAPLRGFVRERVQQVKNGVNVGKTLLFYGCRNSNEDFLYKQEWAEYASVLGENFEMFNAFSRQDPSKKVYVQDKILENSQLVHELLTEGAIIYVCGDASRMARDVQTTISKIVAKSREISEDKAAELVKSWKVQNRYQEDVW
[3]
  specific activity in reduction of cytochrome c: 198 U/mg

B4: full-length, membrane associated CPRA (NADPH-cytochrome P450 reductase) from Candida tropicalis (protein)
chain: MALDKLDLYVIITLVVAVAAYFAKNQFLDQPQDTGFLNTDSGSNSRDVLLTLKKNNKNTLLLFGSQTGTAEDYANKLSRELHSRFGLKTMVADFADYDWDNFGDITEDILVFFIVATYGEGEPTDNADEFHTWLTEEADTLSTLKYTVFGLGNSTYEFFNAIGRKFDRLLSEKGGDRFAEYAEGDDGTGTLDEDFMAWKDNVFDALKNDLNFEEKELKYEPNVKLTERDDLSAADSQVSLGEPNKKYINSEGIDLTKGPFDHTHPYLARITETRELFSSKDRHCIHVEFDISESNLKYTTGDHLAIWPSNSDENIKQFAKCFGLEDKLDTVIELKALDSTYTIPFPTPITYGAVIRHHLEISGPVSRQFFLSIAGFAPDEETKKAFTRLGGDKQEFAAKVTRRKFNIADALLYSSNNAPWSDVPFEFLIENVPHLTPRYYSISSSSLSEKQLINVTAVVEAEEEADGRPVTGVVTNLLKNVEIVQNKTGEKPLVHYDLSGPRGKFNKFKLPVHVRRSNFKLPKNSTTPVILIGPGTGVAPLRGFVRERVQQVKNGVNVGKTLLFYGCRNSNEDFLYKQEWAEYASVLGENFEMFNAFSRQDPSKKVYVQDKILENSQLVHELLTEGAIIYVCGDASRMARDVQTTISKIVAKSREISEDKAAELVKSWKVQNRYQEDVW
[4]
  net counts in product (omega-hydroxylation of [14C]-lauric acid), CYP52A5A/CPRA microsomes without soluble CPR: 12400 net counts

Reference: patent US20030119145A1
